The target of test [1] is T1, bovine serum albumin (bovine, UniProt P02769 25-607).
T1 construct: also called BSA; Bovine albumin
In words: SPR (Biacore 3000), immobilized BSA. Background: Surface plasmon resonance follows binding to a sensor surface in real time, without labels.
Protocol: (§1) 1700 RUs of BSA (Sigma) were immobilized on research grad CM5-sensorchip (BIACORE). Ethanolamin blocked surface was used as a reference. Immobilizations were carried out at the protein concentrations of 50 µg/ml in 10 mM acetate pH 4.5 using amin coupling kit supplied by the manufacturer. Antibodies were passed through Superdex 75™ (GE Healthcare) column to separate monomer prior to BIACORE analysis.
(§2) In all instances, analyses were carried out at 25 C in HBS-E buffer (10 mM HEPES, 150 mM NaCl, and 3 mM EDTA, pH 7.4) supplemented with 0.005% surfactant P20 at a flow rate of 20 µl/min. The surfaces were regenerated with 100 mM HCl (3 seconds). Data were analyzed with BIAevaluation 4.1 software.

In test [2] the target is T1, bovine serum albumin. In words: SPR (Biacore 3000), immobilized BSA. The source holds these as a separate data set.
Protocol: as §1, §2
The target of test [3] is T2, murine serum albumin (murine, UniProt P07724 25-608).
T2 construct: also called Murine albumin
Kind of test: SPR (Biacore 3000), immobilized albumin.
Protocol: as §1, §2

In test [4] the target is T3, porcine serum albumin (porcine, UniProt P08835 25-607).
T3 construct: also called Porcine albumin
T3 sequence (P08835 25-607 limits assumed): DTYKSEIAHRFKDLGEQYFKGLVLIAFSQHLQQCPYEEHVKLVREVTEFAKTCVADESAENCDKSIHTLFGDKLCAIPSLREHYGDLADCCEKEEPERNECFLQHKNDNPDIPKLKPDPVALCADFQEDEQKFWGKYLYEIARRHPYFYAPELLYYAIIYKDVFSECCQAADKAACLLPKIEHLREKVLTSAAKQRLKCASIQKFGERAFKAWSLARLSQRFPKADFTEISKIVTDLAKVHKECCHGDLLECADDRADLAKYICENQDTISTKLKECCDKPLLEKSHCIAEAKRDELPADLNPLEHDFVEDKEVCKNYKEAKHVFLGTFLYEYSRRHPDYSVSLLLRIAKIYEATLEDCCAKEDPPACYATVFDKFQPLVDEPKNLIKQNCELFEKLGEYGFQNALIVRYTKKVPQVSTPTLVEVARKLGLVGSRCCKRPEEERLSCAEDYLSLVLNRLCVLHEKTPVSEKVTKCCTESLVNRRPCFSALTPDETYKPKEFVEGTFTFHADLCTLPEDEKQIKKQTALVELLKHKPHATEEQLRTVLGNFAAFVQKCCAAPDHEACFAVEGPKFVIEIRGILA
In words: SPR (Biacore 3000), immobilized albumin.
Protocol: as §1, §2

Test [5] has as its target T4, sheep serum albumin (sheep, UniProt P14639 25-607).
T4 construct: also called Sheep albumin
In words: SPR (Biacore 3000), immobilized albumin.
Protocol: as §1, §2

Test [6] deals with T5, canine serum albumin (canine, UniProt P49822 25-608).
T5 construct: also called Canine albumin
T5 sequence (P49822 25-608 limits assumed): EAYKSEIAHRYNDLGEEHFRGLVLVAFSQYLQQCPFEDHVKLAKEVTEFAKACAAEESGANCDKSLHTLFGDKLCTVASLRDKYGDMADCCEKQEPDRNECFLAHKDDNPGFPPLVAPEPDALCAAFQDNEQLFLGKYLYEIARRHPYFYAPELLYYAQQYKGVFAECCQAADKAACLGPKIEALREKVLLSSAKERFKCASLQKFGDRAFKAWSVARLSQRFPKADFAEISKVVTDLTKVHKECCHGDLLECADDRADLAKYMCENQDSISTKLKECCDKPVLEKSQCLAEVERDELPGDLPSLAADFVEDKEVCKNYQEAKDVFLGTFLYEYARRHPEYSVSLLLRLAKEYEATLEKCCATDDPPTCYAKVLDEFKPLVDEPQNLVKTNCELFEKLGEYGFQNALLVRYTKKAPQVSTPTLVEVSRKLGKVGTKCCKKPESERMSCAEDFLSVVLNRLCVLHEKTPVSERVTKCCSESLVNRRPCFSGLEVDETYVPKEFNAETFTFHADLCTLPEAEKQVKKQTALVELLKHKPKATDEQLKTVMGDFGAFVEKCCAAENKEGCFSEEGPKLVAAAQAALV
Kind of test: SPR (Biacore 3000), immobilized albumin.
Protocol: as §1, §2

Test [7] deals with T6, goat serum albumin (goat).
T6 construct: also called Goat albumin
T6 sequence (P85295 whole entry, looked up): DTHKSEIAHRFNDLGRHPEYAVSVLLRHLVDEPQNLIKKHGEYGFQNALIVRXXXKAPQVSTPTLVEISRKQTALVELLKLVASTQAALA
In words: SPR (Biacore 3000), immobilized albumin.
Protocol: as §1, §2

In test [8] the target is T7, guinea pig serum albumin (guinea pig).
T7 construct: also called Guinea pig albumin
In words: SPR (Biacore 3000), immobilized albumin.
Protocol: as §1, §2

Test [9] has as its target T1, bovine serum albumin. In words: SPR (Biacore 3000), immobilized albumin.
Protocol: as §1, §2
Test [10] deals with T1, bovine serum albumin. Kind of test: SPR (Biacore 3000), immobilized BSA, extended dissociation.
Protocol: as §1, §2
(§3) Each binding was performed three times, and the obtained data were reproducible.
Test [11] deals with T1, bovine serum albumin. In words: SPR (Biacore 3000), immobilized BSA, 4 h dissociation time.
Protocol: as §1, §2, §3
The target of test [12] is T8, human serum albumin (human, UniProt P02768 25-609).
T8 construct: also called Human albumin
T8 sequence (P02768 25-609 limits assumed): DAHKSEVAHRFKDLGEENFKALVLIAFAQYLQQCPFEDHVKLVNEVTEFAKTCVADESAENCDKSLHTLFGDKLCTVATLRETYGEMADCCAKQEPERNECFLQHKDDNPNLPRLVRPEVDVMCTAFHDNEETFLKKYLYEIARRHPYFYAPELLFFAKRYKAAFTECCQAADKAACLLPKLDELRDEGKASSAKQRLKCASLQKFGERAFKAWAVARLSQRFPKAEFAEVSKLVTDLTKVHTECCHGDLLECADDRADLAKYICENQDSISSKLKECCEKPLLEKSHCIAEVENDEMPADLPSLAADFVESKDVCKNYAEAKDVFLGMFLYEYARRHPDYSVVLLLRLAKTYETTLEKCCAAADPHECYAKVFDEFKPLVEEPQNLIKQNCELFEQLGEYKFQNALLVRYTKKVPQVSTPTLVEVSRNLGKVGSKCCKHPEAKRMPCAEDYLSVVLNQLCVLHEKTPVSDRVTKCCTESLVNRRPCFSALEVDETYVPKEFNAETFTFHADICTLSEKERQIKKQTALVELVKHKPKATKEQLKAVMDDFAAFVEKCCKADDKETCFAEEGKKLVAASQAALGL
Kind of test: SPR (Biacore 3000), immobilized albumin; lower bound of the printed KD range.

The target in test [13] is T8, human serum albumin. In words: SPR (Biacore 3000), immobilized albumin; upper bound of the printed KD range.

T1 sequence (P02769 25-607 limits assumed): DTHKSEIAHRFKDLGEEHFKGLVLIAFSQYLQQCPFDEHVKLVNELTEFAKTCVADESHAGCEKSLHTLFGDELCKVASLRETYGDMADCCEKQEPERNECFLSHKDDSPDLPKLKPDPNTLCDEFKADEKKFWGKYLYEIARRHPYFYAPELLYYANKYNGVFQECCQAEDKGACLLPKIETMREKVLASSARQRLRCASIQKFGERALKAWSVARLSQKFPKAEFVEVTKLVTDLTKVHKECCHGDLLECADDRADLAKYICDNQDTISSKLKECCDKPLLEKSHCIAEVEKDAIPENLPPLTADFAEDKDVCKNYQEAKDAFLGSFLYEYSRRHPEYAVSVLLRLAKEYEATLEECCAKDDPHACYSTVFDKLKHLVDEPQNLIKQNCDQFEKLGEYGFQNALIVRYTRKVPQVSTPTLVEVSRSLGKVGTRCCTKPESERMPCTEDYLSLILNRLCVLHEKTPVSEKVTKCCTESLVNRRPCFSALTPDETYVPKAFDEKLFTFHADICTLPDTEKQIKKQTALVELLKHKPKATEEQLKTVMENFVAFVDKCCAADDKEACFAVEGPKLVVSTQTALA
T4 sequence (P14639 25-607 limits assumed): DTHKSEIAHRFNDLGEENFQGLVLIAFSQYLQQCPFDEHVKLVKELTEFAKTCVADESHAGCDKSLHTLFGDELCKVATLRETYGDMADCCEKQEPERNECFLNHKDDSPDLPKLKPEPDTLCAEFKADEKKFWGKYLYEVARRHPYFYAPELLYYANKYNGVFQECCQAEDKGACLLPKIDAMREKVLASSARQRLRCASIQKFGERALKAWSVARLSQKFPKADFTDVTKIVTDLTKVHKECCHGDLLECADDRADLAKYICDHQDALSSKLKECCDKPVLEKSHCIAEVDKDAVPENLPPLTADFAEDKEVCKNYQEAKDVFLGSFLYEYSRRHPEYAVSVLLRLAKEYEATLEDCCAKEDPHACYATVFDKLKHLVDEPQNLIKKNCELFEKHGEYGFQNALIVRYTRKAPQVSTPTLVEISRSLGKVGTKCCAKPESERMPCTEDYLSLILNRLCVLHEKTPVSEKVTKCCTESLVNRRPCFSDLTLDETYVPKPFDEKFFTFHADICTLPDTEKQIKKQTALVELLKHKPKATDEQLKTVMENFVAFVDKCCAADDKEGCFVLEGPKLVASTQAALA

B1: BSA16 (VHH)
VHH: QVKLEESGGGLVQAGGSLRLSCAPSGRTFRTWRMGWFRQAPGKEREFVAAINLNTGNTYYVDSVKGRFTISGDYAKNTLYLQMNSLKPEDTAVYFCAARSPDSDYVPLSSIDYQYWGQGTQVTVSS
notes: also called sdAb BSA16; pBSA16 product
Broadly, the Kd is the free concentration of one partner at which half of the binding sites on the other are occupied at equilibrium, for simple one-to-one binding. Low readings indicate tighter binding, high ones weaker binding. The term koff denotes a measure of how fast the partners let go of each other. Lower therefore signals slow dissociation. As usually defined, the kon is a measure of how fast the partners come together. A low value points to slower complex formation. Regarding B1, in test [1], binding was characterised by a dissociation constant (Kd) of 280 nM, the koff was found to be 0.27 s⁻¹ and the kon stood at 1e+06 M⁻¹ s⁻¹.

B2: BSA8 (VHH)
VHH: QVKLEESGGGLAQAGGSLRLSCAASERTFIRYTIGWFRQAPGKEREFVGRVNWSGGDTYYADSVKGRFTISRDNAKTTVTLQMSSLKPEDTAVYSCAASPKWSEIPREYIYWGPGTQVTVSS
notes: also called sdAb BSA8; pBSA8 product
B2 showed a koff in [2] of 0.005 s⁻¹. In addition, in test [1], the Kd is roughly 100 nM.

B3: BSA12 (VHH)
VHH: QVKLEESGGGLVQVGDSLRLSCAASGRTFSNYTMAWFRQFPGKEREFVAVVSRGGGATDYADSVKGRFTISRDNAKNTMYLQMNSLKTDTAVYYCAAGTDLSYYYSTKKWAYWGQGTQVTVSS
notes: also called sdAb BSA12; pBSA12 product
Regarding B3, the dissociation constant (Kd) in [1] amounted to 0.004 nM; in [3] it was 59 nM; in [4], 380 nM; in test [5], 1000 nM; in [6] it was 1400 nM; in test [7], 240 nM. The Kd is 730 nM in test [8], 0.0036 nM in test [9], greater than 10000 nM in test [12] and less than 500000 nM in test [13]. Also, the kon was found to be 2.5e+06 M⁻¹ s⁻¹ in test [1]; 2.7e+06 M⁻¹ s⁻¹ in [3]; 680000 M⁻¹ s⁻¹ in test [4]; 1.2e+06 M⁻¹ s⁻¹ in test [7]; 830000 M⁻¹ s⁻¹ in test [8]; 2.5e+06 M⁻¹ s⁻¹ in [9]. Also, the koff was 0.16 s⁻¹ in [3]; 0.22 s⁻¹ in [4]; 0.3 s⁻¹ in [7]; 0.6 s⁻¹ in [8]; 9e-06 s⁻¹ in test [9]; 1e-05 s⁻¹ in [10]. The koff in [11] is 9e-06 s⁻¹.

The values above are taken from US9327022 (NATIONAL RESEARCH COUNCIL OF CANADA, dated 2016).
